{"source": "the supplement of paper PMC7877785", "assay": "self-splicing fitness, log relative to wild type (ln ratio); higher = more splicing; Tetrahymena group I intron in knt gene, E. coli kanamycin selection, DiMSum; sequences stand for … in CUCUCU…GGAGGGAAAAGUUAUCAGGCAUGCACCUGGUAGCUAGUCUUUAAACCAAUAGAUUGCAUCGGUUUAAAAGGCAAGACCGUCAAAUUGCGGGAAAGGGGUCAACAGCCGUUCAGUACCAAGUCUCAGGGGAAACUUUGAGAUGGCCUUGCAAAGGGUAUGGUAAUAAGCUGACGGACAUGGUCCUAACCACGCAGCCAAGUCCUAAGUCAACAGAUCUUCUGUUGAUAUGGAUGCAGUUCACAGACUAAAUGUCGGUCGGGGAAGAUGUAUUCUUCUCAUAAGAUAUAGUCGGACCUCUCCUUAAUGGGAGCUAGCGGAUGAAGUGAUGCAACACUGGAGCCGCUGGGAACUAAUUUGUAUGCGAAAGUAUAUUGAUUAGUUUUGGAGUACUCGUGGUCG", "procedure,_shortened": "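Library with all eight P1ex-region intron nucleotides randomised, intron inside the knt kanamycin-resistance gene on pET-22b(+), in E. coli BL21(DE3). Cells grew overnight at 37°C or 30°C on LB agar with or without 25 μg/mL kanamycin (plus 100 μg/mL carbenicillin, 50 μM IPTG, 0.2% rhamnose), in six replicate transformations. Pooled colonies were amplicon-sequenced on Illumina HiSeq 2500. DiMSum fitness is the error-weighted combination of wild-type-normalised replicate fold changes, kanamycin versus none.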", "note": "± gives the uncertainty stated by the source."}
{"sequence": "CAACAGCAAUAUUACGGGGA", "values": [{"measurement": "self-splicing fitness (ln)", "setting": "30 °C", "value": "-2.24 ± 0.093"}, {"measurement": "self-splicing fitness (ln)", "setting": "37 °C", "value": "-2.14 ± 0.11"}]}
{"sequence": "ACAUAGCAAUAUUACGCAGU", "values": [{"measurement": "self-splicing fitness (ln)", "setting": "30 °C", "value": "-3.57 ± 0.28"}, {"measurement": "self-splicing fitness (ln)", "setting": "37 °C", "value": "-2.84 ± 0.36"}]}
{"sequence": "UUAUAGCAAUAUUACGGAUC", "values": [{"measurement": "self-splicing fitness (ln)", "setting": "30 °C", "value": "-3.02 ± 0.45"}]}
{"sequence": "CUUAAGCAAUAUUACGUGCU", "values": [{"measurement": "self-splicing fitness (ln)", "setting": "30 °C", "value": "-2.16 ± 0.24"}, {"measurement": "self-splicing fitness (ln)", "setting": "37 °C", "value": "-2.1 ± 0.18"}]}
{"sequence": "UCGUAGCAAUAUUACGGGUA", "values": [{"measurement": "self-splicing fitness (ln)", "setting": "30 °C", "value": "-1.57 ± 0.17"}, {"measurement": "self-splicing fitness (ln)", "setting": "37 °C", "value": "-0.425 ± 0.16"}]}
{"sequence": "AAGCAGCAAUAUUACGCGCC", "values": [{"measurement": "self-splicing fitness (ln)", "setting": "30 °C", "value": "-1.33 ± 0.11"}, {"measurement": "self-splicing fitness (ln)", "setting": "37 °C", "value": "-1.24 ± 0.15"}]}
{"sequence": "UGCUAGCAAUAUUACGGCGA", "values": [{"measurement": "self-splicing fitness (ln)", "setting": "30 °C", "value": "-0.369 ± 0.22"}, {"measurement": "self-splicing fitness (ln)", "setting": "37 °C", "value": "-0.302 ± 0.23"}]}
{"sequence": "AGGCAGCAAUAUUACGACGG", "values": [{"measurement": "self-splicing fitness (ln)", "setting": "30 °C", "value": "-2.49 ± 0.16"}, {"measurement": "self-splicing fitness (ln)", "setting": "37 °C", "value": "-0.746 ± 0.22"}]}
{"sequence": "GGUGAGCAAUAUUACGAAUG", "values": [{"measurement": "self-splicing fitness (ln)", "setting": "30 °C", "value": "-3.14 ± 0.29"}, {"measurement": "self-splicing fitness (ln)", "setting": "37 °C", "value": "-2.36 ± 0.5"}]}
{"sequence": "GGCCAGCAAUAUUACGACUA", "values": [{"measurement": "self-splicing fitness (ln)", "setting": "30 °C", "value": "-0.921 ± 0.1"}, {"measurement": "self-splicing fitness (ln)", "setting": "37 °C", "value": "-0.322 ± 0.1"}]}
{"sequence": "CGUGAGCAAUAUUACGGCAA", "values": [{"measurement": "self-splicing fitness (ln)", "setting": "30 °C", "value": "-2.81 ± 0.2"}, {"measurement": "self-splicing fitness (ln)", "setting": "37 °C", "value": "-1.43 ± 0.19"}]}
{"sequence": "CGACAGCAAUAUUACGAAGA", "values": [{"measurement": "self-splicing fitness (ln)", "setting": "30 °C", "value": "-2.29 ± 0.17"}, {"measurement": "self-splicing fitness (ln)", "setting": "37 °C", "value": "-2.09 ± 0.16"}]}
{"sequence": "CACAAGCAAUAUUACGUCCC", "values": [{"measurement": "self-splicing fitness (ln)", "setting": "30 °C", "value": "-2.13 ± 0.33"}, {"measurement": "self-splicing fitness (ln)", "setting": "37 °C", "value": "-1.07 ± 0.46"}]}
{"sequence": "GAGAAGCAAUAUUACGCGGG", "values": [{"measurement": "self-splicing fitness (ln)", "setting": "30 °C", "value": "-2.86 ± 0.14"}, {"measurement": "self-splicing fitness (ln)", "setting": "37 °C", "value": "-1.88 ± 0.14"}]}
{"sequence": "CUCAAGCAAUAUUACGGGCA", "values": [{"measurement": "self-splicing fitness (ln)", "setting": "30 °C", "value": "-2.74 ± 0.15"}, {"measurement": "self-splicing fitness (ln)", "setting": "37 °C", "value": "-2.48 ± 0.16"}]}
{"sequence": "GUUGAGCAAUAUUACGUCAU", "values": [{"measurement": "self-splicing fitness (ln)", "setting": "30 °C", "value": "-2.26 ± 0.21"}, {"measurement": "self-splicing fitness (ln)", "setting": "37 °C", "value": "-2.44 ± 0.38"}]}
{"sequence": "ACCCAGCAAUAUUACGCCGG", "values": [{"measurement": "self-splicing fitness (ln)", "setting": "30 °C", "value": "-3.06 ± 0.16"}, {"measurement": "self-splicing fitness (ln)", "setting": "37 °C", "value": "-2.96 ± 0.26"}]}
{"sequence": "CUGCAGCAAUAUUACGUACA", "values": [{"measurement": "self-splicing fitness (ln)", "setting": "30 °C", "value": "-2.96 ± 0.29"}, {"measurement": "self-splicing fitness (ln)", "setting": "37 °C", "value": "-1.43 ± 0.19"}]}
{"sequence": "CGUCAGCAAUAUUACGGUUC", "values": [{"measurement": "self-splicing fitness (ln)", "setting": "30 °C", "value": "-3.67 ± 0.31"}, {"measurement": "self-splicing fitness (ln)", "setting": "37 °C", "value": "-0.0181 ± 0.15"}]}
{"sequence": "UAUCAGCAAUAUUACGCCUA", "values": [{"measurement": "self-splicing fitness (ln)", "setting": "30 °C", "value": "0.206 ± 0.11"}, {"measurement": "self-splicing fitness (ln)", "setting": "37 °C", "value": "0.701 ± 0.13"}]}
{"sequence": "AUCCAGCAAUAUUACGACCA", "values": [{"measurement": "self-splicing fitness (ln)", "setting": "30 °C", "value": "-0.725 ± 0.15"}, {"measurement": "self-splicing fitness (ln)", "setting": "37 °C", "value": "-0.224 ± 0.17"}]}
{"sequence": "AAGGAGCAAUAUUACGGAAA", "values": [{"measurement": "self-splicing fitness (ln)", "setting": "37 °C", "value": "-0.83 ± 0.24"}]}
{"sequence": "GGCCAGCAAUAUUACGGUAG", "values": [{"measurement": "self-splicing fitness (ln)", "setting": "30 °C", "value": "-0.883 ± 0.063"}, {"measurement": "self-splicing fitness (ln)", "setting": "37 °C", "value": "0.303 ± 0.083"}]}
{"sequence": "UGACAGCAAUAUUACGUCUU", "values": [{"measurement": "self-splicing fitness (ln)", "setting": "30 °C", "value": "-0.839 ± 0.049"}, {"measurement": "self-splicing fitness (ln)", "setting": "37 °C", "value": "-0.539 ± 0.07"}]}
{"sequence": "CUUUAGCAAUAUUACGGCAG", "values": [{"measurement": "self-splicing fitness (ln)", "setting": "30 °C", "value": "-0.944 ± 0.12"}, {"measurement": "self-splicing fitness (ln)", "setting": "37 °C", "value": "-0.552 ± 0.14"}]}
{"sequence": "AUUGAGCAAUAUUACGAAAG", "values": [{"measurement": "self-splicing fitness (ln)", "setting": "30 °C", "value": "-2.69 ± 0.38"}, {"measurement": "self-splicing fitness (ln)", "setting": "37 °C", "value": "-1.72 ± 0.29"}]}
{"sequence": "GGCAAGCAAUAUUACGUAUU", "values": [{"measurement": "self-splicing fitness (ln)", "setting": "30 °C", "value": "-0.415 ± 0.06"}, {"measurement": "self-splicing fitness (ln)", "setting": "37 °C", "value": "-0.183 ± 0.074"}]}
{"sequence": "CAGAAGCAAUAUUACGAUCC", "values": [{"measurement": "self-splicing fitness (ln)", "setting": "30 °C", "value": "-2.81 ± 0.16"}, {"measurement": "self-splicing fitness (ln)", "setting": "37 °C", "value": "-1.93 ± 0.32"}]}
{"sequence": "ACCUAGCAAUAUUACGGCGA", "values": [{"measurement": "self-splicing fitness (ln)", "setting": "30 °C", "value": "-1.49 ± 0.12"}, {"measurement": "self-splicing fitness (ln)", "setting": "37 °C", "value": "-0.462 ± 0.11"}]}
{"sequence": "UCUCAGCAAUAUUACGUGUG", "values": [{"measurement": "self-splicing fitness (ln)", "setting": "30 °C", "value": "-2.33 ± 0.098"}, {"measurement": "self-splicing fitness (ln)", "setting": "37 °C", "value": "-2.27 ± 0.11"}]}
{"sequence": "AACGAGCAAUAUUACGUCGC", "values": [{"measurement": "self-splicing fitness (ln)", "setting": "30 °C", "value": "-2.69 ± 0.36"}, {"measurement": "self-splicing fitness (ln)", "setting": "37 °C", "value": "1.3 ± 0.3"}]}
{"sequence": "UAUCAGCAAUAUUACGAUAA", "values": [{"measurement": "self-splicing fitness (ln)", "setting": "30 °C", "value": "-0.166 ± 0.081"}, {"measurement": "self-splicing fitness (ln)", "setting": "37 °C", "value": "-0.065 ± 0.092"}]}
{"sequence": "UCAAAGCAAUAUUACGUCUA", "values": [{"measurement": "self-splicing fitness (ln)", "setting": "30 °C", "value": "-1.92 ± 0.1"}, {"measurement": "self-splicing fitness (ln)", "setting": "37 °C", "value": "-0.787 ± 0.098"}]}
{"sequence": "UUAAAGCAAUAUUACGUUGG", "values": [{"measurement": "self-splicing fitness (ln)", "setting": "30 °C", "value": "-1.12 ± 0.094"}, {"measurement": "self-splicing fitness (ln)", "setting": "37 °C", "value": "-0.746 ± 0.1"}]}
{"sequence": "UGAUAGCAAUAUUACGUUAG", "values": [{"measurement": "self-splicing fitness (ln)", "setting": "30 °C", "value": "-1.92 ± 0.1"}, {"measurement": "self-splicing fitness (ln)", "setting": "37 °C", "value": "-1.57 ± 0.15"}]}
{"sequence": "CUACAGCAAUAUUACGCAGC", "values": [{"measurement": "self-splicing fitness (ln)", "setting": "30 °C", "value": "-2.28 ± 0.24"}, {"measurement": "self-splicing fitness (ln)", "setting": "37 °C", "value": "-1.75 ± 0.36"}]}
{"sequence": "GCGCAGCAAUAUUACGUACA", "values": [{"measurement": "self-splicing fitness (ln)", "setting": "30 °C", "value": "-1.49 ± 0.084"}, {"measurement": "self-splicing fitness (ln)", "setting": "37 °C", "value": "-0.256 ± 0.088"}]}
{"sequence": "UCCUAGCAAUAUUACGUACC", "values": [{"measurement": "self-splicing fitness (ln)", "setting": "30 °C", "value": "-2.36 ± 0.47"}]}
{"sequence": "GGUAAGCAAUAUUACGUGGA", "values": [{"measurement": "self-splicing fitness (ln)", "setting": "30 °C", "value": "-2.91 ± 0.21"}, {"measurement": "self-splicing fitness (ln)", "setting": "37 °C", "value": "-2.52 ± 0.2"}]}
